± gives the uncertainty stated by the source.
Assay: protein stability index of a GFP-peptide fusion (yeast GPS) (PSI 1-4); higher = more stable; sorted into four equal gates, so the index is relative within each strain
Procedure, shortened: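 Tiled 17-residue peptides from yeast proteins were fused downstream of GFP on a plasmid that also expresses Cherry, and the pooled library was carried in yeast. Mid-log cultures grown in leucine-free medium were sorted into four equal gates by GFP/Cherry fluorescence ratio. Plasmids from each gate were PCR-amplified and Illumina-sequenced, and reads were assigned to strains by barcodes. Each peptide's protein stability index is the sum, over gates, of the gate's read frequency multiplied by its gate number.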

| Sequence | protein stability index (doa10∆) | protein stability index (pdr5∆) | protein stability index (san1∆) | protein stability index (ubr1∆) |
| --- | --- | --- | --- | --- |
| NVGKPDQSIASGNTNGA [YOR098C/NUP1] | 3 ± 0.2 | 2.09 ± 0.28 | 2.83 ± 0.085 | 2.93 ± 0.1 |
| NVKEITEKLKISPESVF [SMC3] | 1.7 ± 0.086 | 2.18 ± 0.069 | 2.32 ± 0.13 | 2.04 ± 0.052 |
| NVLDYFAESPFFDKTSN [MED6] | 3.46 ± 0.068 | 2.99 ± 0.085 | 2.87 ± 0.062 | 3.04 ± 0.051 |
| NVNETMSRSLANGIINV [SMC3] | 2.75 ± 0.074 | 2.76 ± 0.061 | 2.96 ± 0.081 | 2.73 ± 0.057 |
| NVPSTKFNAAPEENATE [SNF12] | 3.21 ± 0.067 | 3.35 ± 0.07 | 3.17 ± 0.058 | 3.12 ± 0.055 |
| NVRDDMKPSDNISTNTN [SSN2] | 3.1 ± 0.045 | 2.94 ± 0.049 | 2.88 ± 0.051 | 3.04 ± 0.053 |
| NVRMDTMANILYYPQKP [RPB2] | 2.83 ± 0.11 | 3.23 ± 0.24 | 3.12 ± 0.1 | 2.99 ± 0.1 |
| NVSIVANYIKERTKNAQ [SMC4] | 3.02 ± 0.12 | 3.14 ± 0.065 | 2.91 ± 0.05 | 3.18 ± 0.061 |
| NVSSNIVKNAEQHNLVK [RPS20] | 2.81 ± 0.066 | 3.17 ± 0.057 | 3.26 ± 0.046 | 3.07 ± 0.061 |
| NVTETYSVYLIHEIRLN [SIR3] | 2.59 ± 0.23 | 1.98 ± 0.099 | 2.42 ± 0.14 | 2.37 ± 0.066 |
| NVYRVTVHKTFEGNVAT [PRP8] | – | 3.16 ± 0.23 | 3.23 ± 0.22 | 3.33 ± 0.15 |
| NVYVGMTDMQIQWYKSL [ISW2] | 1.96 ± 0.057 | 2.41 ± 0.059 | 1.99 ± 0.072 | 3.14 ± 0.069 |
| NVYVLPKNLLKKFIEIS [PRP8] | 1.93 ± 0.048 | 2.16 ± 0.045 | 2.06 ± 0.084 | 1.79 ± 0.048 |
| NYDCKVISIVGGHSLEE [PRP28] | 2.93 ± 0.055 | 2.91 ± 0.059 | 2.88 ± 0.042 | 2.83 ± 0.041 |
| NYDTCGGESAYFFQLQI [RPC11] | 2.72 ± 0.2 | 2.75 ± 0.15 | 2.04 ± 0.14 | 2.94 ± 0.14 |
| NYFVDTDLKKIIKANQL [RET1] | 2.88 ± 0.058 | 2.85 ± 0.066 | 3.01 ± 0.044 | 2.53 ± 0.036 |
| NYIPGNPLVTPASIVPE [COB] | 1.81 ± 0.068 | 2.36 ± 0.071 | 2.42 ± 0.1 | 2.56 ± 0.086 |
| NYIYAGYENGMLAQWDL [RPN14] | 2.92 ± 0.13 | 3.07 ± 0.14 | 3.06 ± 0.1 | 3.14 ± 0.078 |
| NYKGLPKKYKENNTDSA [SMC1] | 3.32 ± 0.07 | 3.31 ± 0.085 | 3.28 ± 0.045 | 3.36 ± 0.061 |

| Sequence | protein stability index (doa10∆) | protein stability index (pdr5∆) | protein stability index (san1∆) | protein stability index (ubr1∆) |
| --- | --- | --- | --- | --- |
| NYNDLIVNYEDLATTQA [BRN1] | 2.98 ± 0.07 | 3.1 ± 0.087 | 3.34 ± 0.047 | 3.27 ± 0.061 |
| PAGQATQKRTHVLKKNP [RPL4A] | 2.95 ± 0.22 | 3.21 ± 0.21 | 3.28 ± 0.22 | 2.74 ± 0.14 |
| PAITIEKLKQFSWISVV [SIR3] | 1.16 ± 0.05 | 1.45 ± 0.055 | 1.24 ± 0.094 | 1.13 ± 0.035 |
| PAKVEDVQKSSDSSSED [YLR335W/NUP2] | 2.84 ± 0.1 | 2.41 ± 0.097 | 2.4 ± 0.11 | 1.65 ± 0.053 |
| PALIRPGRIDRKILFEN [RPT2] | – | 2.21 ± 0.16 | 2.12 ± 0.2 | 2.58 ± 0.17 |
| PAVKQWDLLPEPIRFLP [SWI1] | 2.28 ± 0.058 | 2.27 ± 0.069 | 2.33 ± 0.055 | 2.53 ± 0.072 |
| PDAKIQVRRDIPSAAFN [YMR129W/POM152] | 2.17 ± 0.061 | 1.89 ± 0.098 | 1.63 ± 0.11 | 3.24 ± 0.088 |
| PDELIKAGVEAISQSLR [PRE5] | 2.83 ± 0.14 | 2.91 ± 0.15 | – | 1.49 ± 0.051 |
| PEESKGSFKYITARSAF [SWP82] | 2.85 ± 0.068 | 3.04 ± 0.076 | 3.1 ± 0.053 | 3.15 ± 0.06 |
| PEESKPINLQNGEEDEV [YLR335W/NUP2] | 2.9 ± 0.075 | 2.92 ± 0.077 | 3.1 ± 0.046 | 3.1 ± 0.062 |
| PEGTLSGGSRNTSESLL [SMC2] | 3.4 ± 0.2 | 3.29 ± 0.15 | 3.44 ± 0.13 | 3.28 ± 0.25 |
| PEIPLVVSTDLESIQKT [RPL4A] | 2.96 ± 0.071 | 3.05 ± 0.086 | 3.16 ± 0.052 | 2.81 ± 0.062 |
| PEKKEMIQEVIVEEDLE [FAS2] | 3.14 ± 0.077 | 3.31 ± 0.089 | 3.35 ± 0.045 | 3.36 ± 0.062 |
| PEKTSTELVDGRENFVY [SIR3] | 3.08 ± 0.099 | 3.25 ± 0.15 | 3.1 ± 0.12 | 3 ± 0.088 |
| PEMIKRSLLLSRVRADD [RRP43] | 2.87 ± 0.2 | 3.63 ± 0.17 | – | 2.92 ± 0.16 |
| PENTAMFNPLHESYCLP [YMR129W/POM152] | 2.44 ± 0.043 | 2.66 ± 0.042 | 2.66 ± 0.037 | 2.6 ± 0.03 |
| PESQGQHEQQKQQEQLE [YMR153W/NUP53] | 3.4 ± 0.083 | 3.37 ± 0.066 | 3.24 ± 0.06 | 3.26 ± 0.072 |
| PEYEKAMQYVCGDSIIC [SMC1] | 1.7 ± 0.1 | 2.27 ± 0.17 | 1.88 ± 0.14 | 1.89 ± 0.1 |
| PFDNSTEEKCKNFIESE [YJL039C/NUP192] | 3.27 ± 0.14 | 3.39 ± 0.16 | 3.22 ± 0.096 | 3.32 ± 0.1 |

Reference: the supplement of paper PMC9732359
